Measured values as given in US20150098945A1 (Daiichi Sankyo, published 2015).

T1: recombinant human ROBO4 extracellular region polypeptide rROBO4-ECD (human, UniProt Q8WZ75 28-461)
T1 construct: Expressed from pEF6/V5-His-TOPO in FreeStyle 293-F cells; also called human ROBO4-ECD
T1 sequence: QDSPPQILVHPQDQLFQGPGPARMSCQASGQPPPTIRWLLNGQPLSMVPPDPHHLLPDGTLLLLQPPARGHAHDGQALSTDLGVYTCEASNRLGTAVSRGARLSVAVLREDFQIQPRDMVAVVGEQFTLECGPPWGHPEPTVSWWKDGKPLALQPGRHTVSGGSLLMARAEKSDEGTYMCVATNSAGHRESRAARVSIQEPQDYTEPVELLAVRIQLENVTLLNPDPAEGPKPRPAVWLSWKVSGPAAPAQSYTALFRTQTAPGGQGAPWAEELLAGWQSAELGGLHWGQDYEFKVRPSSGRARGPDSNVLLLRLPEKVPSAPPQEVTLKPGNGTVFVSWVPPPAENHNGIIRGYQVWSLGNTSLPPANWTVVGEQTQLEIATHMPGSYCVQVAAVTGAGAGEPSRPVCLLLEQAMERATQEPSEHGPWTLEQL

T2: human ROBO2 (pCI-hROBO2-transfected HEK293 cells) (human)
T2 chain: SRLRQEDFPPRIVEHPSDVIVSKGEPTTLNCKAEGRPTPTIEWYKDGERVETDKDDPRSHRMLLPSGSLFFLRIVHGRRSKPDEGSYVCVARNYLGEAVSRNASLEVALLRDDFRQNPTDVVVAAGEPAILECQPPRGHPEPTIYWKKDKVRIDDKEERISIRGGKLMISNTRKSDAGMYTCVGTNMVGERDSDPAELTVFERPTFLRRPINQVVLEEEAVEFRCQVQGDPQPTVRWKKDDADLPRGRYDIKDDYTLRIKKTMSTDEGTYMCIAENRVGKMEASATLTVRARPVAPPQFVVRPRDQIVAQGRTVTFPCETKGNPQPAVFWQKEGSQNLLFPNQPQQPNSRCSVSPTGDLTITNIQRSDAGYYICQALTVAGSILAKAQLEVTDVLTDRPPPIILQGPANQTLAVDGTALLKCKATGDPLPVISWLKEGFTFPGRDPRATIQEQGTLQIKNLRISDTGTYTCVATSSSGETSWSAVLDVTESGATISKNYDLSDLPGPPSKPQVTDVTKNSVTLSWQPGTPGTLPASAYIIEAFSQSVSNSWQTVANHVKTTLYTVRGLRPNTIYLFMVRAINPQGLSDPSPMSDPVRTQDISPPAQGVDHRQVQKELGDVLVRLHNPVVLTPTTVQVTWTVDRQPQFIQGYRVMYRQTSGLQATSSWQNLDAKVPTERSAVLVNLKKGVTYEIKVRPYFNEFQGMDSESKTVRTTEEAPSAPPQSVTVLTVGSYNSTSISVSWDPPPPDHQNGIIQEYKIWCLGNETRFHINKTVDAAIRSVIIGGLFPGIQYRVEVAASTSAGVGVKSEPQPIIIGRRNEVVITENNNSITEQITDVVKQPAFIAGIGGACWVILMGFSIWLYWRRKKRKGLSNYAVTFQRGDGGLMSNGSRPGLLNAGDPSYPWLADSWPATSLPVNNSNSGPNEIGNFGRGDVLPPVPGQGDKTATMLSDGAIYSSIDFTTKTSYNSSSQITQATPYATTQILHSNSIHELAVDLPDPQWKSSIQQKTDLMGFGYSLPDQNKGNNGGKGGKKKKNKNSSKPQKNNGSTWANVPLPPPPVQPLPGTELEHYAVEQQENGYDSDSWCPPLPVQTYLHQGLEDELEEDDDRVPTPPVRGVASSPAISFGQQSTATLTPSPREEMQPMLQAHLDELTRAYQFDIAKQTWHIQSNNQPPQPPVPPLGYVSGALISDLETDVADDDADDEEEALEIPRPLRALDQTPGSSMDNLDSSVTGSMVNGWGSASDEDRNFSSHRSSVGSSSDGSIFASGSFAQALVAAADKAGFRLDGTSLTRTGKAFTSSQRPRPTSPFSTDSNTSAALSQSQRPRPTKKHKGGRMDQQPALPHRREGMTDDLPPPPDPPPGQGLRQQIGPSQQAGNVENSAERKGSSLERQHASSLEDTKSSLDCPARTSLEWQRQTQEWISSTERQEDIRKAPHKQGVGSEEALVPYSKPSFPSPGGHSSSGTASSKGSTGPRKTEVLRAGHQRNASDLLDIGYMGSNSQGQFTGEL

B1: humanized MAb1 antibody H-1143 (antibody, human IgG2, kappa, V domains shown)
VH: EVQLVESGGGLVQPGGSLRLSCAASGFTFSTYAMSWVRQAPGKGLEWVATISQGGTYTYYPDSVKGRFTISRDNAKNTLYLQMNSLRAEDTAVYYCARLIYYDYLDYWGQGTLVTVSS
VL: DIVMTQSPLSLPVTLGEPASISCRSSQSLENENKNLYLNWYLQKPGQSPQLLIYRVSNRFSGVPDRFSGSGSGTDFTLKISRVEAEDVGVYYCLQVTHVPWTFGPGTKVDIKR
notes: Human IgG2 / kappa constant regions; also called hMAb1-H2-type heavy chain + hMAb1-L2-type light chain
B2: humanized MAb1 antibody H-2140 (antibody, human IgG2, kappa, V domains shown)
VH: EVQLVESGGGLVQPGGSLRLSCAASGFTFSTYAMSWVRQAPGKRLEWVATISQGGTYTYYPDSVKGRFTISRDNAKNTLYLQMNSLRAEDTAVYYCARLIYYDYLDYWGQGTLVTVSS
VL: DIVMTQSPLSLPVTLGEPASISCRSSQSLENSNGNTYLNWYLQKPGQSPQLLIYRVSNRFSGVPDRFSGSGSGTDFTLKISRVEAEDVGVYYCLQVTHVPWTFGPGTKVDIKR
notes: Human IgG2 / kappa constant regions; also called hMAb1-H4-type heavy chain + hMAb1-L1-type light chain
B3: humanized MAb1 antibody H-2143 (antibody, human IgG2, kappa, V domains shown)
VH: EVQLVESGGGLVQPGGSLRLSCAASGFTFSTYAMSWVRQAPGKRLEWVATISQGGTYTYYPDSVKGRFTISRDNAKNTLYLQMNSLRAEDTAVYYCARLIYYDYLDYWGQGTLVTVSS
VL: DIVMTQSPLSLPVTLGEPASISCRSSQSLENENKNLYLNWYLQKPGQSPQLLIYRVSNRFSGVPDRFSGSGSGTDFTLKISRVEAEDVGVYYCLQVTHVPWTFGPGTKVDIKR
notes: Human IgG2 / kappa constant regions; also called hMAb1-H4-type heavy chain + hMAb1-L2-type light chain
B4: humanized MAb1 antibody H-1140 (antibody, human IgG2, kappa, V domains shown)
VH: EVQLVESGGGLVQPGGSLRLSCAASGFTFSTYAMSWVRQAPGKGLEWVATISQGGTYTYYPDSVKGRFTISRDNAKNTLYLQMNSLRAEDTAVYYCARLIYYDYLDYWGQGTLVTVSS
VL: DIVMTQSPLSLPVTLGEPASISCRSSQSLENSNGNTYLNWYLQKPGQSPQLLIYRVSNRFSGVPDRFSGSGSGTDFTLKISRVEAEDVGVYYCLQVTHVPWTFGPGTKVDIKR
notes: Human IgG2 / kappa constant regions; also called hMAb1-H2-type heavy chain + hMAb1-L1-type light chain

Tests used:
[1] = target: T1, recombinant human ROBO4 extracellular …; assay: SPR (Biacore 3000), antibody captured via anti-human IgG on CM5, rROBO4-ECD as analyte, 1:1 model
Procedure: The dissociation constant between each antibody and rROBO4-ECD was determined with the antibody immobilized as a ligand and the antigen as an analyte using Biacore 3000 (manufactured by GE Healthcare Bio-Sciences Corp.). Approximately 80 RU of the antibody was bound via an anti-human IgG antibody (manufactured by GE Healthcare Bio-Sciences Corp.) immobilized on a sensor chip CM5 (manufactured by GE Healthcare Bio-Sciences Corp.) by an amine coupling method. The running buffer used was PBS containing 0.05% Surfactant P20. Dilution series solutions (0.1-200 nM) of the antigen were added at a flow rate of 30 μL/min. for 300 seconds onto the antibody-bound chip. Subsequently, a dissociation phase was monitored for 300 seconds. 3 M MgCl₂ was added thereto as a regeneration solution at a flow rate of 10 μL/min. for 30 seconds. Data was analyzed using the 1:1 binding model of analysis software (BIAevaluation Software, version 4.1) to calculate an association rate constant kon, a dissociation rate constant koff, and a dissociation constant (KD; KD=koff/kon).

[2] = target: T2, human ROBO2 (pCI-hROBO2-transfected …); assay: flow cytometry (FC500), HEK293 cells transfected with pCI-hROBO2, FITC goat anti-human IgG Fc; control histogram IgG (human IgG)

Kd [1] [nM] | binding result [2] | Binder
3.5 | no binding (tested: 10 µg/mL) | B1
1.8 | no binding (tested: 10 µg/mL) | B2
1.7 | no binding (tested: 10 µg/mL) | B3
3.9 |  | B4
